Source: patent US20250042994A1 (HAINAN SIMCERE ZAIMING PHARMACEUTICAL, published 2025)

T1: human CD19 exon1-3-His tag protein (human, UniProt P15391 20-186, limits assumed)
T1 construct: membrane-distal part of the extracellular region, made in HEK293E cells; not shown: His tag
T1 sequence (looked up): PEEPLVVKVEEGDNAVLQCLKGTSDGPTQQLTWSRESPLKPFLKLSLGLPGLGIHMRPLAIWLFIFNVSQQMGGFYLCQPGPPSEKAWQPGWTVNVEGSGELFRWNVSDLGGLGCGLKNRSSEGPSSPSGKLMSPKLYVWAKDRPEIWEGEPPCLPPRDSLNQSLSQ

T2: Human CD19-his protein (human, UniProt P15391 20-291)
T2 construct: bought protein; also called recombinant human CD19-His; CD19 full-length protein; not shown: His tag
T2 sequence (looked up): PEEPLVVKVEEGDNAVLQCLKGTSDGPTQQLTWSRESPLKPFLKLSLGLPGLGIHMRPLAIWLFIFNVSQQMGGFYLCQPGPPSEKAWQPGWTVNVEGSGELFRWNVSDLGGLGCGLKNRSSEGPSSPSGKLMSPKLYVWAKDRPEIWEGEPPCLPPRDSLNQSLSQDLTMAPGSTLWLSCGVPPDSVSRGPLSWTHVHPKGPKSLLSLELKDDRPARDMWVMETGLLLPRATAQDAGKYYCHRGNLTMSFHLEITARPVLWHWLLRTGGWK


Assays:
[1] = molecular target: T1, human CD19 exon1-3-His tag protein; assay: ELISA on coated human CD19 exon 1-3-His
Protocol: Human CD19-his protein (purchased from ACROBiosystems, catalog number: CD9-H52H2) was diluted with PBS to a final concentration of 4 μg/mL, and then added to a 96-well ELISA plate at 100 μl/well. The plate was sealed with a plastic film and incubated overnight at 4° C., the plate was washed 2 times with PBS the next day, and then a blocking solution [PBS+2% (w/w) BSA] was added for blocking at room temperature for 2 h. The blocking solution was poured off, and 100 nM gradiently diluted CD19 chimeric antibody or control antibody was added at 50 μl/well. After incubation at 37° C. for 2 h, the plate was washed 3 times with PBS. […] TMB substrate was added at 50 μl/well, and incubated at room temperature for 10 min, and then a stop solution (1.0 N HCl) was added at 50 μl/well. The OD450 nm values were read by an ELISA microplate reader (Multimode Plate Reader, EnSight, purchased from Perkin Elmer).
CD19 protein contains 4 exons in the extracellular region, in which exons 1-3 are located at the membrane-distal end and exon 4 is located at the membrane-proximal end. […] To identify the distribution of antigen binding epitopes of the chimeric antibodies, human CD19 exon 1-3-His (membrane-distal end) was used to coat at 2 μg/mL according to the ELISA method in example 5.1.

Human CD19-his protein = molecular target: T2, Human CD19-his protein; assay: SPR Biacore, Ab captured on Protein A, CD19-His analyte
Protocol: A sample buffer and a running buffer were HBS-EP+ (10 mM HEPES, 150 mM NaCl, 3 mM EDTA and 0.05% surfactant P20) (GE Healthcare; BR-1006-69). The flow-through cell was set to 25° C. The sample block was set to 16° C. Both were pretreated with the running buffer. In each cycle, an antibody to be detected was first captured with a Protein A chip, and then a single concentration of CD19 antigen protein was injected. The binding and dissociation processes of the antibody and the antigen protein were recorded, and finally Glycine pH 1.5 (GE Healthcare; BR-1003-54) was used to complete chip regeneration. The binding was measured by injecting different concentrations of recombinant human CD19-His proteins in a solution for 240 s with a flow rate of 30 μl/min. The concentration started from 200 nM (see the detailed results for the actual concentration in the test) and was diluted at 1:1, making a total of 5 concentrations. The dissociation phase was monitored for up to 600 s and was triggered by switching from sample solution to running buffer. The surface was regenerated by washing with a 10 mM glycine solution (pH 1.5) for 30 s at a flow rate of 30 μl/min. Bulk refractive index difference was corrected by subtracting the response obtained from the goat anti-human Fc surface. Blank injection was also subtracted (=double reference). For calculation of apparent KD and other kinetic parameters, Langmuir 1:1 model was used.

Binder	binding result [1]	Kd (Human CD19-his protein)	koff (Human CD19-his protein)	kon (Human CD19-his protein)
F3.113.16 (antibody, human IgG1, V domains shown, human-murine chimeric antibody, human IgG1 constant) VH: QVQLQQPGAELVKPGASVKLSCKASGYTFTNYWMQWVKQRPGQGLEWIGEIDPSDSYINYNQKFKGKATLTADTSSSTAYMQLSSLTYEDSAVYYCARPVTVPWYFDVWGTGTTVTVSS VL: EIVLTQSPTTMAASPGEKITITCSATSSISSNYLHWYQQKPGFSPKLLIYRTSNLASGVPARFSGSGSGTSYSLTIGTMEAEDVATYYCQQGSAIPRIFTFGSGTKLEIK	no binding (tested: 100 nM)	12.4 nM	0.00105 s⁻¹	84800 M⁻¹ s⁻¹
F3.81.2 (antibody, human IgG1, V domains shown, human-murine chimeric antibody, human IgG1 constant) VH: QVQLQQPGAELVMPGASVKLSCKASAYTFTNYWMHWVKQRPGHGLEWIGEIDPSDSYTDYNQNFKAKATLTVDKSSSTAYMQLSSLTSEDSAVYYCARLMGRYFDVWGTGTTVTVSS VL: DIVMTQSHKFMSTSVGDRVSITCKASQDVSAAVAWYQQKPGQSPKLLINSASYRYTGVPDRFTGSGSGTDFTFTISSVQAEDLAVYYCQQHYSTPLTFGAGTKLELR	no binding (tested: 100 nM)	0.766 nM	0.000104 s⁻¹	135000 M⁻¹ s⁻¹
F4.145.9 (antibody, human IgG1, V domains shown, human-murine chimeric antibody, human IgG1 constant) VH: EVQLVESGGGLVKPGGSLKLSCAAAGFAFSSYDMSWVRQIPEKRLEWVAYISAGGGNTYFLDTVKGRFTISRDHAKNTLSLQMSSLKSEDTAMYFCVRHGDYYRYFYAMDYWGQGSSVTVSS VL: DIVMTQSHKFMSTSVGDRVSITCKASQDVGTAVAWSQQKPGQSPKLLIYWASTRHTGVPDRFTGSGSGTDFTLTISNVQSEDLADYFCQQFVTYPYTFGGGTKLEIK	no binding (tested: 100 nM)	3.68 nM	0.000591 s⁻¹	161000 M⁻¹ s⁻¹
F3.13.2 (antibody, human IgG1, V domains shown, human-murine chimeric antibody, human IgG1 constant) VH: DVQLQESGPGLMKPSQSLSLTCSVTGYSITSGYYWNWIRQFPGNKLEWMGYISYDGSNNYNPSLKNRFSITRDTSKNQFFLKLNSVTTEDTATYYCARRKLTGGPYFDYWGQGTTLTVSS VL: DIVLTQSPASLAVTLGQRATISCRASESVSFHGFHIMHWYQQKPGQPPKLLIYAASHLVSGVPDRFSGSGSETDFTLNIHPVEEEDAAAYFCQQSVEDPWTFGGGTKLEIK	no binding (tested: 100 nM)	8.13 nM	0.000526 s⁻¹	64700 M⁻¹ s⁻¹
F4.125.12 (antibody, human IgG1, V domains shown, human-murine chimeric antibody, human IgG1 constant) VH: EVKLVESGGGLVQPGGSLKLSCAASGFTFSTYTMSWVRQTPEKRLEWVAFISSGGGHINYPDTVKGRFTISRDNAKNTLYLQMSSLKSEDTAMYYCARHSYWFFDVWGAGTTVTVSS VL: DVQITQSPSYLAASPGETITINCRASKNIDTYLAWYQEKPGKTNKLLIYSGSTLQSGIPSRFRGGGSGTDFTLTICSLEPEDFAMYYCQQHNEYPLTFGAGTKLELK	no binding (tested: 100 nM)	0.734 nM	0.000204 s⁻¹	278000 M⁻¹ s⁻¹
F3.83.9 (antibody, human IgG1, V domains shown, human-murine chimeric antibody, human IgG1 constant) VH: DVQLQESGPGLVKPSQSLSLTCSVTGYSITSGYYWNWIRQFPGNKLEWMGYISYDGGNNYNPSLKNRISITRDTSKNQFFLKLNSVTTEDTATYFCAREDYSNWYFDVWGTGTTVTVSS VL: DIVLTQSPASLAVSLGQRATISCRASQSVSKSSYSYMHWYQQKPGQSPKLLIKYASILKSGVPARFSGSGSGTDFTLNIHPVEEEDTATYYCQHSWEIPWTFGGGTKLEIK	no binding (tested: 100 nM)	3.67 nM	0.000312 s⁻¹	85100 M⁻¹ s⁻¹
F4.180.1 (antibody, human IgG1, V domains shown, human-murine chimeric antibody, human IgG1 constant) VH: EVQLQQSAPELVKPGASVKMSCKTSGYTFTENIIHWVKQTHGKSLEWIGGINPDNGGTSYHQKFKGRTTLTIDKSSSTAYMELRSLTSDDSAVFFCARQAPLYWYFDIWGAGTTVTVSS VL: DIVLTQSPASLAVSLGQRATISCRASESVDSYGNSLMHWFQQKPGQPPRLLIYRASNLESGIPARFSGSGSRTDFTLTITPVEADDVATYYCQQSNEDPWTFGGGTKLEIK	no binding (tested: 100 nM)	0.359 nM	8.52e-05 s⁻¹	237000 M⁻¹ s⁻¹
F3.64.4 (antibody, human IgG1, V domains shown, human-murine chimeric antibody, human IgG1 constant) VH: EVQLQQSGPELVKPGASVKISCKASGYTFTDYHINWVKQSHGKSPEWIGDINPNNGGTTYNQKFKDKATLTVDKSSSTAFMELRSLTSEDSAVYYCARFITTVVAWYFDVWGTGTTVTVSS VL: DIQMTQSPASLSVSVGETVTITCRASENIYSNLAWYQQKQGKSPQLLVYAATNLADGVPSRFSGSGSGTQYSLKINSLQSEDFGNYYCQRFWDTPRTFGGGTKLEIK	no binding (tested: 100 nM)	1.64 nM	0.000313 s⁻¹	191000 M⁻¹ s⁻¹

The remaining lines, values ahead:

binding result [1]	Kd (Human CD19-his protein)	koff (Human CD19-his protein)	kon (Human CD19-his protein)	Binder
no binding (tested: 100 nM)	1.09 nM	0.000217 s⁻¹	200000 M⁻¹ s⁻¹	F4.107.12 (antibody, human IgG1, V domains shown, human-murine chimeric antibody, human IgG1 constant) VH: EVQLQQSGPELVKPGASVKMSCKASGYTFTSYVLHWVRQKPGQGLEWIGYFNPYNDGTEYNEKFKGKAILTSDKSSSTAYMELNSLTSEDSAVYYCVGGTYYYGSSYPFAYWGQGTLVTVST VL: DVVMTQISLSLPVSLGDQASISCRSSQSLIHSNGNTYLQWYLQKPGQSPKLLIYKVSNRLSGVPDRFSGSGSGTDFTLKISRVEAEDLGVYFCSQSTHVPYTFGGGTKLEIK
no binding (tested: 100 nM)	0.337 nM	8.9e-05 s⁻¹	264000 M⁻¹ s⁻¹	F4.152.7 (antibody, human IgG1, V domains shown, human-murine chimeric antibody, human IgG1 constant) VH: QVQLQQPGAELVKPGASVKLSCKASGYTFTSYWMHWVKQRPGQGLEWIGEIDPSDSYTNYNQKFKGKATLTADKSSSTAYMQLSGLTSEDSAVYHCARGGDYDGYYVMDYWGQGTSVTVSS VL: EIVLTQSPTTMAASPGEKITITCSASSSISSNYLHWYQQKPGFSPKLLIYRTSNLASGVPARFSGSGSGTSYSLTIGTMEADDVATYYCQQGSYIPRIFTFGSGTKLEIK
no binding (tested: 100 nM)	3.71 nM	0.000918 s⁻¹	247000 M⁻¹ s⁻¹	F4.96.6 (antibody, human IgG1, V domains shown, human-murine chimeric antibody, human IgG1 constant) VH: EIQLQQSGPELVKPGASVKVSCKASGYAFSAYNIYWVKQSHGKSLEWIGYIDPYNSGTTYNQKFRGKATLTVDKSSNTAYMHLSSLTSEDSAVYYCTRDGDAMDYWGQGTSVTVSS VL: EILLTQSPAIIAASPGEKVTITCSASSGVIYMNWYQQKPGSSPKIWIYDVSTLASGVPARFSGSGSGTSFSFTINSMEAEDVATYYCQQRSSYPYTFGGGTKLEIK
no binding (tested: 100 nM)	13 nM	0.000799 s⁻¹	61300 M⁻¹ s⁻¹	F3.126.15 (antibody, human IgG1, V domains shown, human-murine chimeric antibody, human IgG1 constant) VH: QVQLQQPGAELVMPGASVKLSCKASGYTFTSYWMHWVKQRPGQGLEWIGEIDPSDSYTTYNQNFKGKATLTVDISTSTAYIQLSNLTSEDSAVYYCARLTGNYIHYWGQGTTLTVSS VL: DIVMTQSHKFMSTSVGDRVSITCKASQDVSPAVAWYQQRPGQCPKLLIFSSSYRSTGVPDRFTGSGSGTDFTFTISSVQAEDLAVYYCQQHYSLPLTFGAGTKLELK
no binding (tested: 100 nM)	1.7 nM	0.000143 s⁻¹	84300 M⁻¹ s⁻¹	F3.40.14 (antibody, human IgG1, V domains shown, human-murine chimeric antibody, human IgG1 constant) VH: QAQLQQSGPELVKPGASVKISCKASGYAFSGSWMNWVQQRPGKGLEWIGRIYPGDGDTYYSGKFKDKAILTADTSSSTAYMQLSSLTSEDSAVYFCAQLRSRYVMDYWGQGASVTVSS VL: DIVLTQSPASLAVSLGQRATISCRASESVSIHGTHLMHWYQQKPGQPPRLLIYAASNLESGVPARFSGSGSETDFTLNIHPVEEEDAATYFCQQGIDDPYTFGGGTKLEIK
